Measured values as given in paper PMC5743566 (Theranostics, 2018).

What was measured:
Test in all cases: immunostaining of cells or tissue
HBx of HBV genotype C = HBx of HBV genotype C (Hepatitis B virus genotype C, strain …, UniProt P0C686, strain)
HBx of HBV genotype A = HBx of HBV genotype A (Hepatitis B virus genotype A, strain …, UniProt P69713, strain)
HBx of HBV genotype D = HBx of HBV genotype D (Hepatitis B virus genotype D, strain …, UniProt P03165, strain)

Measured: binding result

B1: 9D11 mAb (antibody, V domains shown)
VH: QVQLQQPGAELVRPGASVKLSCKASGYSFTSFWISWVKQRPGQGLEWIAMIHPSDNGIRFNQKFKDKATLTVDKSSSTAYMQLNSPTSEDSAVYFCARAGTATFTYWGQGTLVTVSA
VL: DIQMTQTTSSLSVSLGDRVTISCRASQDISNYLNWYQQKPDGIVKLLIYYTSRLHSGVPSRFSGSGSGTDYSLTISNLEQEDLATYFCQQGNALPWTFGGGTKLEIK
binds: all assays above
